Laboratory results reported in US8343490B2, “Monoclonal antibody SC104 and derivative thereof specifically binding to a sialyltetraosyl carbohydrate as a potential anti-tumor therapeutic agent” (Cephalon Australia Pty Ltd, priority 2004, dated 2013).

Experiments:
[1] = test system: C14 antigen (90 KDa glycoprotein purified from saliva); test: ELISA on C14 antigen; assay type: binding; conditions: FIG. 4
Experimental: (§1) • Binding to purified antigen preparations. […] Binding of SC104 mab was assayed by ELISA as described above.

[2] = HPTLC immunostaining of commercially available lipid standards; assay type: binding; conditions: standards of Table 6 (lactosyl ceramide, Gb3, globoside, Forrsman, GM3, AGM1, GM1, GD3, GD1a, GD1b, GT1b)
From the text: The SC104 antigen has been compared to a number of commercially available lipid standards. Examples of each standard were spotted onto HPTLC plates and developed in 50:40:10 chloroform:methanol:CaCl2 (0.5% w/v). Plates were also spotted with partially purified SC104 antigen. Migration of each standard was detected by iodine vapour staining and the location of each marked on the plate. Plates were then probed with SC104.

normal colon = test: Immunohistochemistry of normal colon (screening); assay type: binding; parameters: key: −: negative; +: minimal; 2+: strong; 3+: very strong
[3] = Blood group antigen ELISA, H type I; assay type: binding
Experimental: (§2) The Lewis ^y hapten and the type I and type II H blood group antigen (Sigma, Poole, Dorset) were dried microtitre plates by overnight incubation at 37° C. Binding of SC104 mab was assayed by ELISA as described above.

[4] = test system: SC104 antigen purified from sputum; test: Cross-reaction of antigen purified from sputum with antibodies; assay type: binding; conditions: FIG. 13
From the text: • SC104 antigen purification and characterisation. SC104 specific antigen was purified from sputum samples mixed in a 1:1 ratio with 0.1M pH 7.6 Tris 0.5% NP40. Briefly an immuno-affinity was produced cross linking SC104 S136A to Protein A Cl-6B sepharose using Dimethyl pimelimidate.2HCl as the covalent linker Results

C168 = test: Inhibition of cell growth, MTS; assay type: cell-based; conditions: 30 μg/ml
Experimental: (§3) Inhibition of cell growth. 1×10^3 colorectal C170, C168, C146, CaCO2, Colo205, LoVo and HT29 cells were aliquoted into individual wells of a flat bottomed 96-well plate and left to adhere overnight at 37° C. The following day the cells were treated with: 10, 3, 1, 0.3 and 0 μg/ml of SC104 mab. As a negative control 791T/36 at concentrations 100, 30, 10, 3 and 0 μg/ml, was titrated against each concentration of drug used. Triplicate wells were used. Cells were left for 5 days at 37° C. prior to the addition of MTS reagent to each well and optical density reading at 490 nm.

CaCO2 = test: Inhibition of cell growth, MTS; assay type: cell-based; conditions: 30 μg/ml
Experimental: as §3

C146 = test: Inhibition of cell growth, MTS; assay type: cell-based; conditions: 30 μg/ml
Experimental: as §3

HT-29 = test: Inhibition of cell growth, MTS; assay type: cell-based; conditions: 30 μg/ml
Experimental: as §3

Colo205 = test: Inhibition of cell growth, MTS; assay type: cell-based
Experimental: as §3

C170 = test: Inhibition of cell growth, MTS; assay type: cell-based
Experimental: as §3

[5] = Blood group antigen ELISA, H type II; assay type: binding
Experimental: as §2

[6] = ELISA on tumour glycolipid extract; assay type: binding; conditions: FIG. 4
Experimental: as §1

[7] = test system: frozen tumour tissue sections; test: Immunohistochemistry staining of frozen tumour tissue sections; assay type: binding, Human
Experimental: • Immunohistochemistry staining of normal and tumour tissues. Human tissues were obtained from an Inveresk approved supplier. Each tissue used was snap frozen in liquid nitrogen and stored at approximately −70° C. (±10° C.). Cryostat sections were cut and placed onto super frost plus slides. All tissue samples were treated with an antigen marker appropriate for each tissue in order to confirm the preservation of antigens in that tissue. The markers used were keratin for epithelial bearing tissues, CD45 for all lymphoid tissues, and desmin for all cardiac and skeletal muscle. Each tissue was examined from three unrelated donors. The method of staining employed was an indirect, 2 or 3-stage method, using secondary and tertiary antibodies together with an avidin-biotin-peroxidase complex. Endogenous peroxidase activity was blocked using hydrogen peroxide. Endogenous biotin was blocked by treating all tissue sections with a sequence of avidin-biotin. When a tertiary antibody was used, all tissue sections were treated with normal swine serum, which inhibits the binding of tertiary antibodies to the tissues. Validation of the immunohistochemical staining method was determined by staining on positive control tissues, the absence on negative controls and the effect of fixation on staining of control tissues. SC104 was tested against 6 donors of colon tumour and one of heart at concentrations of […]. Tissues were fixed in either acetone or neutral buffered formalin. Two samples of colon tumour stained well enough for use as a positive control and there was no staining in heart. […] The lowest concentration of SC104 giving the maximum staining intensity was 1 μg/ml and this concentration was used for subsequent work. Results

CEA = molecular target: T1, CEA (Homo sapiens, UniProt P06731); test: ELISA on purified CEA; assay type: binding; conditions: FIG. 4
T1 construct: from tissue
T1 sequence (P06731 35-676): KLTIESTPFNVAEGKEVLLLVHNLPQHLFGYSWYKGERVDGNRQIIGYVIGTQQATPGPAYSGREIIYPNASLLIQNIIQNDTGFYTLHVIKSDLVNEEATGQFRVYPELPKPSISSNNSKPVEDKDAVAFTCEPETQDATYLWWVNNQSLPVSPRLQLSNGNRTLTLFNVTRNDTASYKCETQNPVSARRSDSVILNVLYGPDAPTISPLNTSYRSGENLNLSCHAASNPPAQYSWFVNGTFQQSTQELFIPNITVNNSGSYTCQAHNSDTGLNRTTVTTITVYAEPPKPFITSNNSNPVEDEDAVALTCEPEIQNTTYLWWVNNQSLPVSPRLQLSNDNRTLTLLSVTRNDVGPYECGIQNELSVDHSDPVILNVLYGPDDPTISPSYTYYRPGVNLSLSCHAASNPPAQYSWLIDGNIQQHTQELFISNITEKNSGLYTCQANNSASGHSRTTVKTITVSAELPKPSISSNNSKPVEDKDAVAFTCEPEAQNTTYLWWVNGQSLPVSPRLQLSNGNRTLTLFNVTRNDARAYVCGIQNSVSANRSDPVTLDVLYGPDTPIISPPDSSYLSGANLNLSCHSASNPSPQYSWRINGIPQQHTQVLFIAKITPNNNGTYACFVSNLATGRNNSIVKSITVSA
Experimental: as §1

[8] = concentrations in excess of 10 μg/ml, FIG. 20

B1: SC104: mouse IgG1 monoclonal antibody specific for a sialyltetraosyl carbohydrate, raised by immunisation with colorectal cancer cell lines (antibody, V domains shown)
VH: DVQLQESGPDLVKPSQSLSLTCTVTGYSITSGYSWHWVRQFPGNKMEWMGHIHFSGRPTYNPSLSSRISITRDTSKNQFLLQLKFVTTEDTSTYFCARKGKGSDDGLNYWGQGISVTVSS
VL: ENVLTQSPVIMSASPGEKVTMTCSASSSLSYIHWYQQKSRTSPKLWIYDTSNLASGVPGRFSGSGSGNSYSLTISSMEAEDVATYYCFQGSEYPLTFGGGTKLEMT
binding to Lewis ^y/b expressing 90 KDa glycoprotein from saliva by ELISA [1]: bound | recognition of lipid standards [2]: none of the standards were recognised by SC104 | Immunohistochemistry Normal colon (normal colon): + | Binding to blood group antigens by ELISA: H blood group Type I [3]: 0.087 OD 405 nm | cross-reaction with antigen purified from sputum [4]: cross-react | % inhibition of cell growth as measured by MTS staining (C168): 55% | % inhibition of cell growth as measured by MTS staining (CaCO2): 20% | % inhibition of cell growth as measured by MTS staining (C146): 65% | % inhibition of cell growth as measured by MTS staining (HT-29): 5% | % inhibition of cell growth as measured by MTS staining (Colo205; 30 μg/ml): 55% | inhibition of growth of adherent cells (MTS) (Colo205; [8]): inhibited growth | % inhibition of cell growth as measured by MTS staining (C170; 30 μg/ml): 70% | inhibition of growth of adherent cells (MTS) (C170; [8]): inhibited growth | Binding to blood group antigens by ELISA: H blood group Type II [5]: 0.076 OD 405 nm | binding to methanol/chloroform tumour glycolipid extract by ELISA [6]: A similar result was obtained | Immunoreactivity with frozen tissue sections (binding) ([7]; Tumours: Breast): 3/6 | Immunoreactivity with frozen tissue sections (binding) ([7]; Tumours: Colon): 8/8 | Immunoreactivity with frozen tissue sections (binding) ([7]; Tumours: Endometrial): 2/2 | Immunoreactivity with frozen tissue sections (binding) ([7]; Tumours: Lung): 0 | Immunoreactivity with frozen tissue sections (binding) ([7]; Tumours: Oesophageal): 4/4 | Immunoreactivity with frozen tissue sections (binding) ([7]; Tumours: Ovary): 0 | Immunoreactivity with frozen tissue sections (binding) ([7]; Tumours: Parotid): 2/2 | Immunoreactivity with frozen tissue sections (binding) ([7]; Tumours: Prostate): 0 | Immunoreactivity with frozen tissue sections (binding) ([7]; Tumours: Renal): 0 | Immunoreactivity with frozen tissue sections (binding) ([7]; Tumours: Stomach): 4/4 | Immunoreactivity with frozen tissue sections (binding) ([7]; Tumours: Testes): 0/1 | lowest concentration giving the maximum staining intensity ([7]; colon tumour positive control, neutral buffered formalin): 1 µg/mL | staining of CEA by ELISA (CEA): No significant staining
